# In article PMC8141531:
# Legend:
# Assay in all cases: SPR
# [1] = target: heterodimeric IL-2Rαβ (human IL-2Rα-Fc chimera and human IL-2Rβ-Fc chimera captured together) (human) (UniProt P01589)
# [2] = target: human IL-2Rα-Fc chimera (human) (UniProt P01589)
# [3] = target: human IL-2Rβ-Fc chimera (human) (UniProt P14784)
# Chain of UniProt P14784 (P14784 27-240, change not shown): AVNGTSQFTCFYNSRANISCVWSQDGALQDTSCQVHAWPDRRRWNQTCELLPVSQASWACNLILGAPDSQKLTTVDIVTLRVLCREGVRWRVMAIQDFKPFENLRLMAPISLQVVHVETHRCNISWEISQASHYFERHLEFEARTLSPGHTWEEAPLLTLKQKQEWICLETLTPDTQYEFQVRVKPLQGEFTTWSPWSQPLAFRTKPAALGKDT
substance,measurement,setting,value
"NKTR-358, a PEGylated form of rhIL-2 (aldesleukin sequence) (from UniProt P60568 21-153) (ligand)",Kd,[1],1.7 µM
same,Kd,[2],7.3 µM
same,Kd,[3],88 µM
